Test results taken from patent US20170355757A1 (Regeneron, published 2017).
Numbering of substitutions follows the chain as printed. Names and notes keep the numbering of the source. Values belong to the binder of their own block, whether it stands above or below them.

Assays:
[1] = target: T1, monkey C5-mmh (monkey, UniProt P01031 19-1676 (human entry), limits assumed); assay: SPR (Biacore), mAb captured, dissociation of monkey C5 at pH7.4 vs pH6.0, 25°C
T1 construct: recombinant, with C-terminal myc-myc-hexahistidine tag
T1 chain: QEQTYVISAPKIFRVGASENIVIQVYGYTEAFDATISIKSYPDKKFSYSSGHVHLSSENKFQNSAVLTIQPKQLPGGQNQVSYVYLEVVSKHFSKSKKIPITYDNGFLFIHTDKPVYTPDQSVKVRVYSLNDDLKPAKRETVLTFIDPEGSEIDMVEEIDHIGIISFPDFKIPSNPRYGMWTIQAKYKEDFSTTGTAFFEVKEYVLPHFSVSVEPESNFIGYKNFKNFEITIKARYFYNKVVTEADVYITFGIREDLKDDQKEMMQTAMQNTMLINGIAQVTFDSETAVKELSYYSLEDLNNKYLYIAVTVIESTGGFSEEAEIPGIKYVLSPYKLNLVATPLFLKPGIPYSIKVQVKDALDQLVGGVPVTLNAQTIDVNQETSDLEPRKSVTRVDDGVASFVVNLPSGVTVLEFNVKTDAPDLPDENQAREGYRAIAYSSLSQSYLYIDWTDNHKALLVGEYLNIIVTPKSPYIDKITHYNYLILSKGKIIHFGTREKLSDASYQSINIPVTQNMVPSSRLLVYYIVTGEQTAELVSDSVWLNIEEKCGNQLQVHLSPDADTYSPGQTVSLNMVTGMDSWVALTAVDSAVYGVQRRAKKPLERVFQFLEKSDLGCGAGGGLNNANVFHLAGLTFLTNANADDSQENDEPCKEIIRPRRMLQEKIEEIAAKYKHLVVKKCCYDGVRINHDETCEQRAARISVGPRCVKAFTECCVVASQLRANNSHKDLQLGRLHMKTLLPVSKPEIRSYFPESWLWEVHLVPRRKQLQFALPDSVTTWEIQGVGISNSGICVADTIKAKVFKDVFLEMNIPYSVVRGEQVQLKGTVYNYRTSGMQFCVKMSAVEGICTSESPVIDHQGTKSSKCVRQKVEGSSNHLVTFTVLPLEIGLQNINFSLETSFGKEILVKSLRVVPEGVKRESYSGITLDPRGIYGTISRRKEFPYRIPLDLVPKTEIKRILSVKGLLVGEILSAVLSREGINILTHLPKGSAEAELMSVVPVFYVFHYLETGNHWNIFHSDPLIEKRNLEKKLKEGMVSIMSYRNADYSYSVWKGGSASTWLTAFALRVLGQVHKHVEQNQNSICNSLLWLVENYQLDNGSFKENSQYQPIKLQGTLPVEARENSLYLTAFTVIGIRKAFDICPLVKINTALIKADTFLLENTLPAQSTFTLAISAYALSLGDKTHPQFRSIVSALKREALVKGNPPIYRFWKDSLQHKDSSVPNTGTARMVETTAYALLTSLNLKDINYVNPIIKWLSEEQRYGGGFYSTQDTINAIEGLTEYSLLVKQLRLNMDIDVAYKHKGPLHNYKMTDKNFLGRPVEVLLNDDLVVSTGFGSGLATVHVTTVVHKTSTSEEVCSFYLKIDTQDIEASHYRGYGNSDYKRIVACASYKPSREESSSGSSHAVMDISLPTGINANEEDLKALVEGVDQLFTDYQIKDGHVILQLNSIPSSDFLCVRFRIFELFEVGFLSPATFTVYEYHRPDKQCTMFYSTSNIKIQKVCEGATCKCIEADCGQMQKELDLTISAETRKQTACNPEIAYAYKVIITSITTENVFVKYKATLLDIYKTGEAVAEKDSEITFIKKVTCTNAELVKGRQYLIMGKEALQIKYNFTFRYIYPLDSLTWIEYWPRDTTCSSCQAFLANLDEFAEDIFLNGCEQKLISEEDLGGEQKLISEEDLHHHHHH

[2] = target: Cynomolgus monkey C5 (cynomolgus monkey, UniProt A0A2K5U1T1 19-1676); assay: cell-based or functional assay
[3] = target: T2, African green monkey C5 (African green monkey); assay: cell-based or functional assay
[4] = target: T1, monkey C5-mmh; assay: SPR (Biacore), mAb captured, dissociation of monkey C5 at pH7.4 vs pH6.0, 37°C
[5] = target: human C5 R885C-mmh (human, UniProt P01031 19-1676); assay: cell-based or functional assay
[6] = target: T3, human C5 (human, UniProt P01031 19-1676); assay: cell-based or functional assay
[7] = target: T2, African green monkey C5; assay: cell-based or functional assay; remark: listed apart in the source
[8] = target: human C5 R885H-mmh (human, UniProt P01031 19-1676); assay: cell-based or functional assay
[9] = target: T3, human C5; assay: cell-based or functional assay; remark: listed apart in the source
[10] = target: T3, human C5; assay: SPR (Biacore), mAb captured, dissociation of human C5 at pH7.4 vs pH6.0, 37°C
Experimental: Effect of pH on the rate of dissociation of recombinant human C5 bound to purified anti-C5 monoclonal antibodies was determined using a real-time surface plasmon resonance biosensor using a Biacore T200 instrument. The Biacore sensor surface was first derivatized by amine coupling with a monoclonal mouse anti-human Fc antibody (GE, # BR-1008-39) to capture anti-C5 monoclonal antibodies expressed with human IgG4 Fc. All Biacore binding studies were performed using two running buffers PBS-T, pH7.4 (0.01M Na₂HPO₄/NaH₂PO₄, 0.15M NaCl, 0.05% v/v Tween-20, adjusted to pH7.4) and PBS-T, pH6.0 (0.01M Na₂HPO₄/NaH₂PO₄, 0.15M NaCl, 0.05% v/v Tween-20, adjusted to pH6.0). […] Binding dissociative half-lives (t %) were calculated from kd as: […]

t½ Ratio pH7.4/pH6.0 [1]: 0.34 | t½ Ratio pH7.4/pH6.0 [4]: 0.7 | IC50, inhibition of CDC of Daudi cells, C5 depleted human serum and 6.6 nM C5 Variant R885C [5]: 0.9 nM | IC50, inhibition of CDC of Daudi cells, 1.66% human serum [6]: 1.2 nM | IC50, inhibition of CDC of Daudi cells, 1.66% African Green monkey serum [7]: 4 nM | IC50, inhibition of CDC of Daudi cells, C5 depleted human serum and 6.6 nM C5 Variant R885H [8]: 1.3 nM | t½ Ratio pH7.4/pH6.0 [10]: 1.4
B1: H4H11683N (antibody, human IgG4, V domains shown)
VH: QVQLVESGGGVVQPGRSLRLSCVASGFTFSSYGIHWVRQAPGKGLEWVAVIWDDGNNINYSDSVKGRFIISRDNSRKTVYLQMNSLRGEDTAVYYCARDAPIAPVPDYWGQGTLVTVSS
VL: DIQMTQSPSTLSASVGDRVTITCRASQSISSWLAWYQQKPGKAPKLLIYKASSLDTGVPSRFSGSGSGTEFTLTISSLQPDDFATYYCQQYNTYSYTFGLGTKLEIK
notes: tested with H4H prefix (human IgG4 Fc with S108P hinge mutation); variable regions follow the numerical identifier; also called H2M11683N
Cyno AP % Max Inhibition, hemolysis assay, 5% serum [2]: 98.9% | Cyno CP % Max Inhibition, hemolysis assay, 5% serum [2]: 98.8% | Cyno Serum AP IC50, hemolysis assay, 5% serum [2]: 7.15 nM | Cyno Serum CP IC50, hemolysis assay, 5% serum [2]: 9 nM | AGM AP % Max Inhibition, hemolysis assay, 5% serum [3]: 88.1% | AGM CP % Max Inhibition, hemolysis assay, 5% serum [3]: 81.1% | AGM Serum AP IC50, hemolysis assay, 5% serum [3]: 40.8 nM | AGM Serum CP IC50, hemolysis assay, 5% serum [3]: 29.2 nM | Human AP % Max Inhibition, hemolysis assay, NHS [9]: 73.2% | Human AP IC50, hemolysis assay, NHS [9]: 34 nM | Human CP % Max Inhibition, hemolysis assay, NHS [9]: 98.1% | Human CP IC50, hemolysis assay, NHS [9]: 2.54 nM

t½ Ratio pH7.4/pH6.0 [1]: ≤ 1.7 | t½ Ratio pH7.4/pH6.0 [4]: 4.7 | IC50, inhibition of CDC of Daudi cells, C5 depleted human serum and 6.6 nM C5 Variant R885C [5]: 0.43 nM | IC50, inhibition of CDC of Daudi cells, 1.66% human serum [6]: 2 nM | IC50, inhibition of CDC of Daudi cells, 1.66% African Green monkey serum [7]: 3.7 nM | IC50, inhibition of CDC of Daudi cells, C5 depleted human serum and 6.6 nM C5 Variant R885H [8]: 0.48 nM | t½ Ratio pH7.4/pH6.0 [10]: ≤ 0.2
B2: H4H12170P (antibody, human IgG4, V domains shown)
VH: QVQLVESGGGVVQPGRSLRLSCAASGFTFSGYGMHWVRQAPGKGLEWVALIWLDGSNDYYADSVKGRFTISRDNSKNTLYLQMNRLRAEDTAVYYCARDGPVAAIPDYWGQGTLVTVSS
VL: B1 VL with S31R, Q38L, D55E, T56S, E70D, L100Q
notes: H4H: human IgG4 Fc with S108P hinge mutation
Cyno AP % Max Inhibition, hemolysis assay, 5% serum [2]: 99.2% | Cyno CP % Max Inhibition, hemolysis assay, 5% serum [2]: 99% | Cyno Serum AP IC50, hemolysis assay, 5% serum [2]: 7 nM | Cyno Serum CP IC50, hemolysis assay, 5% serum [2]: 8.2 nM | AGM AP % Max Inhibition, hemolysis assay, 5% serum [3]: 90.9% | AGM CP % Max Inhibition, hemolysis assay, 5% serum [3]: 94.9% | AGM Serum AP IC50, hemolysis assay, 5% serum [3]: 26.9 nM | AGM Serum CP IC50, hemolysis assay, 5% serum [3]: 25.4 nM | Human AP % Max Inhibition, hemolysis assay, NHS [9]: 81.1% | Human AP IC50, hemolysis assay, NHS [9]: 18 nM | Human CP % Max Inhibition, hemolysis assay, NHS [9]: 98.2% | Human CP IC50, hemolysis assay, NHS [9]: 2.39 nM

t½ Ratio pH7.4/pH6.0 [1]: 1.2 | t½ Ratio pH7.4/pH6.0 [4]: 6.3 | IC50, inhibition of CDC of Daudi cells, C5 depleted human serum and 6.6 nM C5 Variant R885C [5]: 1 nM | IC50, inhibition of CDC of Daudi cells, 1.66% human serum [6]: 3.2 nM | IC50, inhibition of CDC of Daudi cells, 1.66% African Green monkey serum [7]: 3.4 nM | IC50, inhibition of CDC of Daudi cells, C5 depleted human serum and 6.6 nM C5 Variant R885H [8]: 1.4 nM | t½ Ratio pH7.4/pH6.0 [10]: ≤ 0.2
B3: H4H12159P (antibody, human IgG4, V domains shown)
VH: QVQLVESGGGVVQPGRSLRLSCGASGFTFSTYGMHWVRQAPGKGLEWVAVIWDDGNNKYYADSVKGRFTISRDNSKNTLYLQMNSLRAEDTAVYYCARDSEVAPVGDYWGQGTLVTVSS
VL: B1 VL with T22I, S30N, S31R, D55E, T56S, T85A, T93D, L100Q
notes: as for B2
Cyno AP % Max Inhibition, hemolysis assay, 5% serum [2]: 99.6% | Cyno CP % Max Inhibition, hemolysis assay, 5% serum [2]: 99.3% | Cyno Serum AP IC50, hemolysis assay, 5% serum [2]: 7.05 nM | Cyno Serum CP IC50, hemolysis assay, 5% serum [2]: 7.75 nM | AGM AP % Max Inhibition, hemolysis assay, 5% serum [3]: 93.5% | AGM CP % Max Inhibition, hemolysis assay, 5% serum [3]: 93.4% | AGM Serum AP IC50, hemolysis assay, 5% serum [3]: 27 nM | AGM Serum CP IC50, hemolysis assay, 5% serum [3]: 25.8 nM | Human AP % Max Inhibition, hemolysis assay, NHS [9]: 73.4% | Human AP IC50, hemolysis assay, NHS [9]: 17.5 nM | Human CP % Max Inhibition, hemolysis assay, NHS [9]: 97.9% | Human CP IC50, hemolysis assay, NHS [9]: 2.5 nM
